This test addresses T1, α-syt7cyto immobilised for HaloTag pull-down (UniProt Q9R0N7-1 38-403).
T1 construct: synaptotagmin 7, α splice variant, cytoplasmic domain; The sentence on syt1-fl says only 'immobilized syt7'; also called immobilized syt7
In words: pull-down; HaloTag pull-down; syt7 immobilised; syt1-fl reconstituted into liposomes; Ca2+ against EGTA. The settings on record: both partners purified.

From publication PMC13598225, “Alternative splicing of synaptotagmin 7 regulates oligomerization and short-term synaptic plasticity” (Proceedings of the National Academy of Sciences of the …, 2026) come the findings set out here.

T1 sequence (Q9R0N7 38-403): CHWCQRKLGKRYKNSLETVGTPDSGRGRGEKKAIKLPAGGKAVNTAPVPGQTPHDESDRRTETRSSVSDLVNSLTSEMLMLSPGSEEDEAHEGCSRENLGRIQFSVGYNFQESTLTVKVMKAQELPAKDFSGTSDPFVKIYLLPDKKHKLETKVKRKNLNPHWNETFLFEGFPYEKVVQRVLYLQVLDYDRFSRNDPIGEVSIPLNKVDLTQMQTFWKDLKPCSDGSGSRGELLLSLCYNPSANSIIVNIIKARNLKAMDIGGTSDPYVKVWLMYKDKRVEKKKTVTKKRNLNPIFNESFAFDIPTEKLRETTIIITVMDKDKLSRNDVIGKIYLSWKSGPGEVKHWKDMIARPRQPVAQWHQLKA

B1: syt1-fl reconstituted into liposomes (full-length synaptotagmin 1) (natural protein, UniProt P21707 1-421, looked up)
chain: MVSASHPEALAAPVTTVATLVPHNATEPASPGEGKEDAFSKLKQKFMNELHKIPLPPWALIAIAIVAVLLVVTCCFCVCKKCLFKKKNKKKGKEKGGKNAINMKDVKDLGKTMKDQALKDDDAETGLTDGEEKEEPKEEEKLGKLQYSLDYDFQNNQLLVGIIQAAELPALDMGGTSDPYVKVFLLPDKKKKFETKVHRKTLNPVFNEQFTFKVPYSELGGKTLVMAVYDFDRFSKHDIIGEFKVPMNTVDFGHVTEEWRDLQSAEKEEQEKLGDICFSLRYVPTAGKLTVVILEAKNLKKMDVGGLSDPYVKIHLMQNGKRLKKKKTTIKKNTLNPYYNESFSFEVPFEQIQKVQVVVTVLDYDKIGKNDAIGKVFVGYNSTGAELRHWSDMLANPRRPIAQWHTLQVEEEVDAMLAVKK
notes: synaptotagmin 1, full length (fl); Construct and host are in SI Appendix; source: reconstituted into liposomes
B1: the “binding in Ca2+ relative to EGTA (ratio)” value stood at 1.46 ± 0.15.
